Experimental data: patent US20220175781A1, “CD40L COMPOSITIONS AND METHODS FOR TUNABLE REGULATION” (Obsidian Therapeutics, Inc., priority 2019, published 2022)

Assays:
[1] = molecular target: OT-001661 (MH Linker; CD40L; stop) (human) (UniProt P29965); assay: cell-based or functional assay
[2] = molecular target: OT-001668 (Linker (MH); CD40L (aa 1-261 of WT, (S110-G116) del); stop) (human) (UniProt P29965); assay: cell-based or functional assay
[3] = molecular target: OT-001669 (Linker (MH); CD40L (aa 14-261 of WT); stop) (human) (UniProt P29965); assay: cell-based or functional assay
HEK293T cells = assay: Soluble CD40L ELISA, transiently transfected HEK293T cells; assay type: cell-based, human; details: HEK293T cells
Method: Soluble CD40L (sCD40L) constructs OT-001672, OT-001686, OT-001673, OT-001674, OT-001677, and OT-001684 were transiently transfected into HEK293T cells. Cells were treated with one of the following ligands 1 μM Shield-1, 50 μM TMP, 1 μM Bazedoxifene (BZD) or vehicle control.
The pg/mL levels of soluble CD40L were measured by ELISA (Table 14). Recombinant soluble CD40L was used as the standard in the experiments.

HEK-Blue CD40 = HEK-Blue CD40 assay with sCD40L constructs; assay type: cell-based; details: ligand treated
CD40 = CD40 (UniProt P25942); assay: cell-based or functional assay
HEK-Blue™ CD40 cells = assay: HEK-Blue CD40 SEAP reporter co-culture with transduced Jurkat cells; assay type: cell-based; details: ligand 24 h (1 μM Shield-1, 50 μM TMP or 1 μM Bazedoxifene), recombinant soluble CD40L as standard
Method: Jurkat cells transduced with OT-001661, OT-001685, OT-001662, OT-001666, or OT-001667 were co-cultured with HEK-Blue™ CD40 cells (Invivogen, San Diego, Calif.). Cocultures were treated with ligands (1 μM Shield-1, 50 μM TMP, 1 μM Bazedoxifene (BZD) or vehicle control) for 24 hours and the secreted embryonic alkaline phosphatase (SEAP) reporter levels were measured in the media. All vehicle treated samples had background SEAP activity. Recombinant soluble CD40L was used as the standard in the experiments.

Chain of CD40 (P25942 21-277 limits assumed): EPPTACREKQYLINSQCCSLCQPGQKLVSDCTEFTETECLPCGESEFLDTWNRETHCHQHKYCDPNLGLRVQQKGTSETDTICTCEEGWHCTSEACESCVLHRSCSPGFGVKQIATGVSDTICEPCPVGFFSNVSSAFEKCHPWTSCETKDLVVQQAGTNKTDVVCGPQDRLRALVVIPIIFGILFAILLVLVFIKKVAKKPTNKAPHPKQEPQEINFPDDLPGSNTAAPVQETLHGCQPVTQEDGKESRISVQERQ

Molecule: recombinant human CD40-Fc receptor (from UniProt P25942 21-193) (Fc fusion)
- CD40L levels in supernatant (shedding, ELISA) of Jurkat cells cultured 6 hours with 1.25 µg/ml hCD40-Fc; untreated 1382.06 [1]: 3600
- CD40L levels in supernatant (shedding, ELISA) of Jurkat cells cultured 6 hours with 1.25 µg/ml hCD40-Fc; untreated 10 [2]: 10
- CD40L levels in supernatant (shedding, ELISA) of Jurkat cells cultured 6 hours with 1.25 µg/ml hCD40-Fc; untreated 2137.69 [3]: 8440

B1: OT-001672: Soluble CD40L (sCD40L) construct (protein)
chain: GSMHMQKGDQNPQIAAHVISEASSKTTSVLQWAEKGYYTMSNNLVTLENGKQLTVKRQGLYYIYAQVTFCSNREASSQAPFIASLCLKSPGRFERILLRAANTHSSAKPCGQQSIHLGGVFELQPGASVFVNVTDPSQVSHGTGFTSFGLLKL
- Stabilization Ratio (HEK293T cells; soluble CD40L +Ligand versus Vehicle): 3.3
- functionality in HEK-Blue CD40 assay (HEK-Blue CD40): higher functionality

B2: OT-001667 (Met; ER (aa 305-549 of WT, T371A, L384M, M421G, N519S, G521R, Y537S); Histidine; CD40L; stop) (ligand)
chain: MSLALSLTADQMVSALLDAEPPILYSEYDPTRPFSEASMMGLLTNLADRELVHMINWAKRVPGFVDLALHDQVHLLECAWMEILMIGLVWRSMEHPGKLLFAPNLLLDRNQGKCVEGGVEIFDMLLATSSRFRMMNLQGEEFVCLKSIILLNSGVYTFLSSTLKSLEEKDHIHRVLDKITDTLIHLMAKAGLTLQQQHQRLAQLLLILSHIRHMSSKRMEHLYSMKCKNVVPLSDLLLEMLDAHRLHMIETYNQTSPRSAATGLPISMKIFMYLLTVFLITQMIGSALFAVYLHRRLDKIEDERNLHEDFVFMKTIQRCNTGERSLSLLNCEEIKSQFEGFVKDIMLNKEETKKENSFEMQKGDQNPQIAAHVISEASSKTTSVLQWAEKGYYTMSNNLVTLENGKQLTVKRQGLYYIYAQVTFCSNREASSQAPFIASLCLKSPGRFERILLRAANTHSSAKPCGQQSIHLGGVFELQPGASVFVNVTDPSQVSHGTGFTSFGLLKL
- SEAP reporter of HEK-Blue CD40 cells co-cultured 24 hours with transduced Jurkat cells plus 1 µM Bazedoxifene, given as Soluble CD40L (pg/ml) against a recombinant soluble CD40L standard (CD40): 2570 pg/mL
- Soluble CD40L (HEK-Blue™ CD40 cells): 2565.91 pg/mL

B3: OT-001673: Soluble CD40L (sCD40L) construct (protein)
chain: GSSGISLIAALAVDYVIGMENAMPWNLPADLAWFKRNTLNKPVIMGRHTWESIGRPLPGRKNIILSSQPGTDDRVTWVKSVDEAIAACGDVPEIMVIGGGRVIEQFLPKAQKLYLTHIDAEVEGDTHFPDYEPDDWESVFSEFHDADAQNSHSYCFEILERRGSMHMQKGDQNPQIAAHVISEASSKTTSVLQWAEKGYYTMSNNLVTLENGKQLTVKRQGLYYIYAQVTFCSNREASSQAPFIASLCLKSPGRFERILLRAANTHSSAKPCGQQSIHLGGVFELQPGASVFVNVTDPSQVSHGTGFTSFGLLKL
- ligand dependent regulation of soluble CD40L levels (HEK293T cells; ELISA): ligand dependent regulation
- functionality in HEK-Blue CD40 assay (HEK-Blue CD40): higher functionality
